From article PMC10949841 (2024)

T1: HAdV-C5 hexon labeled with AlexaFluor594 (human adenovirus C5 (HAdV-C5), UniProt P04133 1-952, AlexaFluor594 label (sites not given))
T1 chain: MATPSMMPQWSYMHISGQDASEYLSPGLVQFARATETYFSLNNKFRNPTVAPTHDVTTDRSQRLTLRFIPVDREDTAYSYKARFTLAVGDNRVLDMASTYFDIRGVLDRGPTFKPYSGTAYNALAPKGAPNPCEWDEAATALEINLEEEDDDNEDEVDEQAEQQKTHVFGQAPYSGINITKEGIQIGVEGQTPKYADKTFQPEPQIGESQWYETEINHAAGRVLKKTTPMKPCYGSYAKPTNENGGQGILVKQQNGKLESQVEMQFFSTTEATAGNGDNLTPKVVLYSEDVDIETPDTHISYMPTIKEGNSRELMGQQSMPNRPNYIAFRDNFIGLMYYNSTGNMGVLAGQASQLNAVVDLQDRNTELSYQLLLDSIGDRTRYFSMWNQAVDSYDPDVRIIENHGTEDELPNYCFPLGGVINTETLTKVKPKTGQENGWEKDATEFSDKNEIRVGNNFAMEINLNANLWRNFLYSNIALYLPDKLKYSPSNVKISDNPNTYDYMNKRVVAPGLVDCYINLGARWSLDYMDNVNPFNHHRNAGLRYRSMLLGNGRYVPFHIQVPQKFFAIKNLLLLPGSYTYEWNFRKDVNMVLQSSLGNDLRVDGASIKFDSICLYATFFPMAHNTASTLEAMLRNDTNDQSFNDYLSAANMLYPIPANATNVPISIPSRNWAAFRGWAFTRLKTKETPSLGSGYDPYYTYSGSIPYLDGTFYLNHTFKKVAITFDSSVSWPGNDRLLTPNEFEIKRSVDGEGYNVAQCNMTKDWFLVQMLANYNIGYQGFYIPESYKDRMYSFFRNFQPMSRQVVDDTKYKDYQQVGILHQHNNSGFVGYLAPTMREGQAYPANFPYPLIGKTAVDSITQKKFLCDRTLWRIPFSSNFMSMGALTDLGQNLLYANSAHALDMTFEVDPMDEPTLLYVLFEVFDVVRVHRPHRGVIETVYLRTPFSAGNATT

B1: hLF mut3 (K28A) (natural protein)
chain: GRRRSVQWCAVSQPEATKCFQWQRNMRAVRGPPVSCIKRDSPIQCIQAIAENRADAVTLDGGFIYEAGLAPYKLRPVAAEVYGTERQPRTHYYAVAVVKKGGSFQLNELQGLKSCHTGLRRTAGWNVPIGTLRPFLNWTGPPEPIEAAVARFFSASCVPGADKGQFPNLCRLCAGTGENKCAFSSQEPYFSYSGAFKCLRDGAGDVAFIRESTVFEDLSDEAERDEYELLCPDNTRKPVDKFKDCHLARVPSHAVVARSVNGKEDAIWNLLRQAQEKFGKDKSPKFQLFGSPSGQKDLLFKDSAIGFSRVPPRIDSGLYLGSGYFTAIQNLRKSEEEVAARRARVVWCAVGEQELRKCNQWSGLSEGSVTCSSASTTEDCIALVLKGEADAMSLDGGYVYTAGKCGLVPVLAENYKSQQSSDPDPNCVDRPVEGYLAVAVVRRSDTSLTWNSVKGKKSCHTAVDRTAGWNIPMGLLFNQTGSCKFDEYFSQSCAPGSDPRSNLCALCIGDEQGENKCVPNSNERYYGYTGAFRCLAENAGDVAFVKDVTVLQNTDGNNNEAWAKDLKLADFALLCLDGKRKPVTEARSCHLAMAPNHAVVSRMDKVERLKQVLLHQQAKFGRNGSDCPDKFCLFQSETKNLLFNDNTECLARLHGKTTYEKYLGPQYVAGITNLKKCSTSPLLEACEFLRK
B2: hLF mut7 (N673A/S678A) (natural protein)
chain: GRRRSVQWCAVSQPEATKCFQWQRNMRKVRGPPVSCIKRDSPIQCIQAIAENRADAVTLDGGFIYEAGLAPYKLRPVAAEVYGTERQPRTHYYAVAVVKKGGSFQLNELQGLKSCHTGLRRTAGWNVPIGTLRPFLNWTGPPEPIEAAVARFFSASCVPGADKGQFPNLCRLCAGTGENKCAFSSQEPYFSYSGAFKCLRDGAGDVAFIRESTVFEDLSDEAERDEYELLCPDNTRKPVDKFKDCHLARVPSHAVVARSVNGKEDAIWNLLRQAQEKFGKDKSPKFQLFGSPSGQKDLLFKDSAIGFSRVPPRIDSGLYLGSGYFTAIQNLRKSEEEVAARRARVVWCAVGEQELRKCNQWSGLSEGSVTCSSASTTEDCIALVLKGEADAMSLDGGYVYTAGKCGLVPVLAENYKSQQSSDPDPNCVDRPVEGYLAVAVVRRSDTSLTWNSVKGKKSCHTAVDRTAGWNIPMGLLFNQTGSCKFDEYFSQSCAPGSDPRSNLCALCIGDEQGENKCVPNSNERYYGYTGAFRCLAENAGDVAFVKDVTVLQNTDGNNNEAWAKDLKLADFALLCLDGKRKPVTEARSCHLAMAPNHAVVSRMDKVERLKQVLLHQQAKFGRNGSDCPDKFCLFQSETKNLLFNDNTECLARLHGKTTYEKYLGPQYVAGITALKKCATSPLLEACEFLRK
B3: hLF mut8 (E687A/K691A) (natural protein)
chain: GRRRSVQWCAVSQPEATKCFQWQRNMRKVRGPPVSCIKRDSPIQCIQAIAENRADAVTLDGGFIYEAGLAPYKLRPVAAEVYGTERQPRTHYYAVAVVKKGGSFQLNELQGLKSCHTGLRRTAGWNVPIGTLRPFLNWTGPPEPIEAAVARFFSASCVPGADKGQFPNLCRLCAGTGENKCAFSSQEPYFSYSGAFKCLRDGAGDVAFIRESTVFEDLSDEAERDEYELLCPDNTRKPVDKFKDCHLARVPSHAVVARSVNGKEDAIWNLLRQAQEKFGKDKSPKFQLFGSPSGQKDLLFKDSAIGFSRVPPRIDSGLYLGSGYFTAIQNLRKSEEEVAARRARVVWCAVGEQELRKCNQWSGLSEGSVTCSSASTTEDCIALVLKGEADAMSLDGGYVYTAGKCGLVPVLAENYKSQQSSDPDPNCVDRPVEGYLAVAVVRRSDTSLTWNSVKGKKSCHTAVDRTAGWNIPMGLLFNQTGSCKFDEYFSQSCAPGSDPRSNLCALCIGDEQGENKCVPNSNERYYGYTGAFRCLAENAGDVAFVKDVTVLQNTDGNNNEAWAKDLKLADFALLCLDGKRKPVTEARSCHLAMAPNHAVVSRMDKVERLKQVLLHQQAKFGRNGSDCPDKFCLFQSETKNLLFNDNTECLARLHGKTTYEKYLGPQYVAGITNLKKCSTSPLLEACAFLRA
B4: hLF mut5 (R24S/R27A/K28A/R30A) (natural protein)
chain: GRRRSVQWCAVSQPEATKCFQWQSNMAAVAGPPVSCIKRDSPIQCIQAIAENRADAVTLDGGFIYEAGLAPYKLRPVAAEVYGTERQPRTHYYAVAVVKKGGSFQLNELQGLKSCHTGLRRTAGWNVPIGTLRPFLNWTGPPEPIEAAVARFFSASCVPGADKGQFPNLCRLCAGTGENKCAFSSQEPYFSYSGAFKCLRDGAGDVAFIRESTVFEDLSDEAERDEYELLCPDNTRKPVDKFKDCHLARVPSHAVVARSVNGKEDAIWNLLRQAQEKFGKDKSPKFQLFGSPSGQKDLLFKDSAIGFSRVPPRIDSGLYLGSGYFTAIQNLRKSEEEVAARRARVVWCAVGEQELRKCNQWSGLSEGSVTCSSASTTEDCIALVLKGEADAMSLDGGYVYTAGKCGLVPVLAENYKSQQSSDPDPNCVDRPVEGYLAVAVVRRSDTSLTWNSVKGKKSCHTAVDRTAGWNIPMGLLFNQTGSCKFDEYFSQSCAPGSDPRSNLCALCIGDEQGENKCVPNSNERYYGYTGAFRCLAENAGDVAFVKDVTVLQNTDGNNNEAWAKDLKLADFALLCLDGKRKPVTEARSCHLAMAPNHAVVSRMDKVERLKQVLLHQQAKFGRNGSDCPDKFCLFQSETKNLLFNDNTECLARLHGKTTYEKYLGPQYVAGITNLKKCSTSPLLEACEFLRK
B5: hLF mut1 (R24S) (natural protein)
chain: GRRRSVQWCAVSQPEATKCFQWQSNMRKVRGPPVSCIKRDSPIQCIQAIAENRADAVTLDGGFIYEAGLAPYKLRPVAAEVYGTERQPRTHYYAVAVVKKGGSFQLNELQGLKSCHTGLRRTAGWNVPIGTLRPFLNWTGPPEPIEAAVARFFSASCVPGADKGQFPNLCRLCAGTGENKCAFSSQEPYFSYSGAFKCLRDGAGDVAFIRESTVFEDLSDEAERDEYELLCPDNTRKPVDKFKDCHLARVPSHAVVARSVNGKEDAIWNLLRQAQEKFGKDKSPKFQLFGSPSGQKDLLFKDSAIGFSRVPPRIDSGLYLGSGYFTAIQNLRKSEEEVAARRARVVWCAVGEQELRKCNQWSGLSEGSVTCSSASTTEDCIALVLKGEADAMSLDGGYVYTAGKCGLVPVLAENYKSQQSSDPDPNCVDRPVEGYLAVAVVRRSDTSLTWNSVKGKKSCHTAVDRTAGWNIPMGLLFNQTGSCKFDEYFSQSCAPGSDPRSNLCALCIGDEQGENKCVPNSNERYYGYTGAFRCLAENAGDVAFVKDVTVLQNTDGNNNEAWAKDLKLADFALLCLDGKRKPVTEARSCHLAMAPNHAVVSRMDKVERLKQVLLHQQAKFGRNGSDCPDKFCLFQSETKNLLFNDNTECLARLHGKTTYEKYLGPQYVAGITNLKKCSTSPLLEACEFLRK
B6: hLF mut4 (R30A) (natural protein)
chain: GRRRSVQWCAVSQPEATKCFQWQRNMRKVAGPPVSCIKRDSPIQCIQAIAENRADAVTLDGGFIYEAGLAPYKLRPVAAEVYGTERQPRTHYYAVAVVKKGGSFQLNELQGLKSCHTGLRRTAGWNVPIGTLRPFLNWTGPPEPIEAAVARFFSASCVPGADKGQFPNLCRLCAGTGENKCAFSSQEPYFSYSGAFKCLRDGAGDVAFIRESTVFEDLSDEAERDEYELLCPDNTRKPVDKFKDCHLARVPSHAVVARSVNGKEDAIWNLLRQAQEKFGKDKSPKFQLFGSPSGQKDLLFKDSAIGFSRVPPRIDSGLYLGSGYFTAIQNLRKSEEEVAARRARVVWCAVGEQELRKCNQWSGLSEGSVTCSSASTTEDCIALVLKGEADAMSLDGGYVYTAGKCGLVPVLAENYKSQQSSDPDPNCVDRPVEGYLAVAVVRRSDTSLTWNSVKGKKSCHTAVDRTAGWNIPMGLLFNQTGSCKFDEYFSQSCAPGSDPRSNLCALCIGDEQGENKCVPNSNERYYGYTGAFRCLAENAGDVAFVKDVTVLQNTDGNNNEAWAKDLKLADFALLCLDGKRKPVTEARSCHLAMAPNHAVVSRMDKVERLKQVLLHQQAKFGRNGSDCPDKFCLFQSETKNLLFNDNTECLARLHGKTTYEKYLGPQYVAGITNLKKCSTSPLLEACEFLRK
B7: human lactoferrin (hLF), wild type (natural protein)
chain: GRRRSVQWCAVSQPEATKCFQWQRNMRKVRGPPVSCIKRDSPIQCIQAIAENRADAVTLDGGFIYEAGLAPYKLRPVAAEVYGTERQPRTHYYAVAVVKKGGSFQLNELQGLKSCHTGLRRTAGWNVPIGTLRPFLNWTGPPEPIEAAVARFFSASCVPGADKGQFPNLCRLCAGTGENKCAFSSQEPYFSYSGAFKCLRDGAGDVAFIRESTVFEDLSDEAERDEYELLCPDNTRKPVDKFKDCHLARVPSHAVVARSVNGKEDAIWNLLRQAQEKFGKDKSPKFQLFGSPSGQKDLLFKDSAIGFSRVPPRIDSGLYLGSGYFTAIQNLRKSEEEVAARRARVVWCAVGEQELRKCNQWSGLSEGSVTCSSASTTEDCIALVLKGEADAMSLDGGYVYTAGKCGLVPVLAENYKSQQSSDPDPNCVDRPVEGYLAVAVVRRSDTSLTWNSVKGKKSCHTAVDRTAGWNIPMGLLFNQTGSCKFDEYFSQSCAPGSDPRSNLCALCIGDEQGENKCVPNSNERYYGYTGAFRCLAENAGDVAFVKDVTVLQNTDGNNNEAWAKDLKLADFALLCLDGKRKPVTEARSCHLAMAPNHAVVSRMDKVERLKQVLLHQQAKFGRNGSDCPDKFCLFQSETKNLLFNDNTECLARLHGKTTYEKYLGPQYVAGITNLKKCSTSPLLEACEFLRK

Molecular target: T1, HAdV-C5 hexon labeled with AlexaFluor594
Assay: MST
In the case of B1, the Kd is reported as 125 nM.
B2 showed a Kd of 207 nM.
In the case of B3, the Kd is reported as 370 nM.
B4 gave a Kd of 602 nM.
For B5, the Kd was 247 nM.
B6 showed a Kd of 207 nM.
B7 showed a Kd of 117 nM.
